According to US20200270325A1 (Merck Sharp & Dohme, published 2020):
Numbered stars: 1 amine (or outer) side, 2 acyl side, 3 side chain; on linkers, the order of the positions; unused ones are H or OH. Square brackets hold non-standard residues; d marks the D form. Side chains are listed from the residue outwards. Ends that are not written are not given here. * marks the point of attachment. Phe(4-CH2NH2) = NCc1ccc(C[C@H](N)C(=O)O)cc1; C18 diacid = O=C(O)CCCCCCCCCCCCCCCCC(=O)*; C16 diacid = O=C(O)CCCCCCCCCCCCCCC(=O)*; γGlu = O=C(O)[C@H](CCC(=O)[*:2])N[*:1]; Met(O2) = CS(=O)(=O)CC[C@H](N)C(=O)O; αMeD = C[C@](N)(CC(=O)O)C(=O)O; αMeS = C[C@](N)(CO)C(=O)O; AEEA = NCCOCCOCC(=O)O; Aib = CC(C)(N)C(=O)O

Tests used:
[1] = target: human Glucagon receptor (GCGR) (human, UniProt P47871 26-477); experiment: cell-based or functional assay
human Glucagon receptor (GCGR), sequence (P47871 26-477): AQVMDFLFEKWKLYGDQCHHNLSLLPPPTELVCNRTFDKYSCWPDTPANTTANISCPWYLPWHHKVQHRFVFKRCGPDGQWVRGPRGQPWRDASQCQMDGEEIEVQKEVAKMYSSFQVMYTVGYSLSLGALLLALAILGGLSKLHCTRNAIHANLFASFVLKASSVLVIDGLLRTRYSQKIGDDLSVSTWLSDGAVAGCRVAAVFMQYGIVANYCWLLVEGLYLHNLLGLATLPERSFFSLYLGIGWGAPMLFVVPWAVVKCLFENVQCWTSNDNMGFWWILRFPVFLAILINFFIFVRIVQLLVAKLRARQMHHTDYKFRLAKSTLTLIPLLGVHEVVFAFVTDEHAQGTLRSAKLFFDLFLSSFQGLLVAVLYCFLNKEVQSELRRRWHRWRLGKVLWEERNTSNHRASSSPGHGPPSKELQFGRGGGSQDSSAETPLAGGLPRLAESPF

[2] = target: human GLP-1 receptor (GLP1R) (human, UniProt P43220 24-463); experiment: cell-based or functional assay

Binder: H[Aib]QGTFTSD[Phe(4-CH2NH2)]([AEEA-AEEA-γGlu-C16 diacid])SKYLD[Aib]RAAQDFVQWLL[αMeD]TK-{γGlu-NH2} [TP657]
- GCGR EC50 human [1]: 0.14 nM
- GLP1R EC50 human [2]: 2.18 nM

B1: TP639 (peptide)
peptide: H[Aib]QGTFTSDYSKYLDARAAQDFV[Phe(4-CH2NH2)]([γGlu-C18 diacid])WLLDT-NH2
modifications: N-terminus assumed
SMILES: CC(C)C[C@H](NC(=O)[C@H](Cc1ccc(O)cc1)NC(=O)[C@H](CCCCN)NC(=O)[C@H](CO)NC(=O)[C@H](Cc1ccc(O)cc1)NC(=O)[C@H](CC(=O)O)NC(=O)[C@H](CO)NC(=O)[C@@H](NC(=O)[C@H](Cc1ccccc1)NC(=O)[C@@H](NC(=O)CNC(=O)[C@H](CCC(N)=O)NC(=O)C(C)(C)NC(=O)[C@@H](N)Cc1c[nH]cn1)[C@@H](C)O)[C@@H](C)O)C(=O)N[C@@H](CC(=O)O)C(=O)N[C@@H](C)C(=O)N[C@@H](CCCNC(=N)N)C(=O)N[C@@H](C)C(=O)N[C@@H](C)C(=O)N[C@@H](CCC(N)=O)C(=O)N[C@@H](CC(=O)O)C(=O)N[C@@H](Cc1ccccc1)C(=O)N[C@H](C(=O)N[C@@H](Cc1ccc(CNC(=O)CC[C@H](NC(=O)CCCCCCCCCCCCCCCCC(=O)O)C(=O)O)cc1)C(=O)N[C@@H](Cc1c[nH]c2ccccc12)C(=O)N[C@@H](CC(C)C)C(=O)N[C@@H](CC(C)C)C(=O)N[C@@H](CC(=O)O)C(=O)N[C@H](C(N)=O)[C@@H](C)O)C(C)C
- GCGR EC50 human [1]: 3.38 nM
- GLP1R EC50 human [2]: 2.09 nM

B2: TP636 (peptide)
peptide: H[Aib]QGTFTSDYSKYLDARAA[Phe(4-CH2NH2)]([AEEA-AEEA-γGlu-C18 diacid])DFVQWL[Met(O2)][αMeD]T-NH2
modifications: N-terminus assumed
SMILES: CC(C)C[C@H](NC(=O)[C@H](Cc1ccc(O)cc1)NC(=O)[C@H](CCCCN)NC(=O)[C@H](CO)NC(=O)[C@H](Cc1ccc(O)cc1)NC(=O)[C@H](CC(=O)O)NC(=O)[C@H](CO)NC(=O)[C@@H](NC(=O)[C@H](Cc1ccccc1)NC(=O)[C@@H](NC(=O)CNC(=O)[C@H](CCC(N)=O)NC(=O)C(C)(C)NC(=O)[C@@H](N)Cc1c[nH]cn1)[C@@H](C)O)[C@@H](C)O)C(=O)N[C@@H](CC(=O)O)C(=O)N[C@@H](C)C(=O)N[C@@H](CCCNC(=N)N)C(=O)N[C@@H](C)C(=O)N[C@@H](C)C(=O)N[C@@H](Cc1ccc(CNC(=O)COCCOCCNC(=O)COCCOCCNC(=O)CC[C@H](NC(=O)CCCCCCCCCCCCCCCCC(=O)O)C(=O)O)cc1)C(=O)N[C@@H](CC(=O)O)C(=O)N[C@@H](Cc1ccccc1)C(=O)N[C@H](C(=O)N[C@@H](CCC(N)=O)C(=O)N[C@@H](Cc1c[nH]c2ccccc12)C(=O)N[C@@H](CC(C)C)C(=O)N[C@@H](CCS(C)(=O)=O)C(=O)N[C@@](C)(CC(=O)O)C(=O)N[C@H](C(N)=O)[C@@H](C)O)C(C)C
- GCGR EC50 human [1]: 0.11 nM
- GLP1R EC50 human [2]: 0.52 nM

Binder: H[Aib]QGTFTSDYSKYLD[Aib]RAAK([AEEA-AEEA-γGlu-C16 diacid])DFVQWLLATK-{γGlu-NH2} [TP662]
- GCGR EC50 human [1]: 1.45 nM
- GLP1R EC50 human [2]: 0.52 nM

Binder: H[αMeS]QGTFTSD[Phe(4-CH2NH2)]([AEEA-AEEA-γGlu-C16 diacid])SKYLD[Aib]RAAQDFVQWLLATK-{γGlu-NH2} [TP660]
- GCGR EC50 human [1]: 4.54 nM
- GLP1R EC50 human [2]: 3.59 nM

Binder: H[Aib]QGTFTSD[Phe(4-CH2NH2)]([AEEA-AEEA-γGlu-C20‑OH])SKYLDARAAQDFVQWL[Met(O2)]DT-NH2 [TP580]
- GCGR EC50 human [1]: 1.09 nM
- GLP1R EC50 human [2]: 0.46 nM

B3: TP637 (peptide)
peptide: H[Aib]QGTFTSDYSKYLDARAAQDFVK([AEEA-γGlu-C18 diacid])WL[Met(O2)]DT-NH2
modifications: N-terminus assumed
SMILES: CC(C)C[C@H](NC(=O)[C@H](Cc1ccc(O)cc1)NC(=O)[C@H](CCCCN)NC(=O)[C@H](CO)NC(=O)[C@H](Cc1ccc(O)cc1)NC(=O)[C@H](CC(=O)O)NC(=O)[C@H](CO)NC(=O)[C@@H](NC(=O)[C@H](Cc1ccccc1)NC(=O)[C@@H](NC(=O)CNC(=O)[C@H](CCC(N)=O)NC(=O)C(C)(C)NC(=O)[C@@H](N)Cc1c[nH]cn1)[C@@H](C)O)[C@@H](C)O)C(=O)N[C@@H](CC(=O)O)C(=O)N[C@@H](C)C(=O)N[C@@H](CCCNC(=N)N)C(=O)N[C@@H](C)C(=O)N[C@@H](C)C(=O)N[C@@H](CCC(N)=O)C(=O)N[C@@H](CC(=O)O)C(=O)N[C@@H](Cc1ccccc1)C(=O)N[C@H](C(=O)N[C@@H](CCCCNC(=O)COCCOCCNC(=O)CC[C@H](NC(=O)CCCCCCCCCCCCCCCCC(=O)O)C(=O)O)C(=O)N[C@@H](Cc1c[nH]c2ccccc12)C(=O)N[C@@H](CC(C)C)C(=O)N[C@@H](CCS(C)(=O)=O)C(=O)N[C@@H](CC(=O)O)C(=O)N[C@H](C(N)=O)[C@@H](C)O)C(C)C
- GCGR EC50 human [1]: 0.94 nM
- GLP1R EC50 human [2]: 0.53 nM

B4: TP659 (peptide)
peptide: HXQGTFTSDXSKYLDXRAAQDFVQWLLAX
modifications: D-Ser (s) at 2; pAF(PEG2PEG2γEC16OH) at 10; Aib (U) at 16; KγE at 30-31 (γ-glutamic acid after Lys 30); C-terminal amide
- GCGR EC50 human [1]: 0.46 nM
- GLP1R EC50 human [2]: > 4.9 nM

Binder: H[Aib]QGTFTSD[Phe(4-CH2NH2)]([AEEA-AEEA-γGlu-C16 diacid])SKYLD[Aib]RAAQDFVQWL[Met(O2)]ATK-{γGlu-NH2} [TP658]
- GCGR EC50 human [1]: 3.2 nM
- GLP1R EC50 human [2]: 1.66 nM

B5: TP638 (peptide)
peptide: H[Aib]QGTFTSDYSKYLDARAAQDFV[Phe(4-CH2NH2)]([AEEA-γGlu-C18 diacid])WLLDT-NH2
modifications: N-terminus assumed
SMILES: CC(C)C[C@H](NC(=O)[C@H](Cc1ccc(O)cc1)NC(=O)[C@H](CCCCN)NC(=O)[C@H](CO)NC(=O)[C@H](Cc1ccc(O)cc1)NC(=O)[C@H](CC(=O)O)NC(=O)[C@H](CO)NC(=O)[C@@H](NC(=O)[C@H](Cc1ccccc1)NC(=O)[C@@H](NC(=O)CNC(=O)[C@H](CCC(N)=O)NC(=O)C(C)(C)NC(=O)[C@@H](N)Cc1c[nH]cn1)[C@@H](C)O)[C@@H](C)O)C(=O)N[C@@H](CC(=O)O)C(=O)N[C@@H](C)C(=O)N[C@@H](CCCNC(=N)N)C(=O)N[C@@H](C)C(=O)N[C@@H](C)C(=O)N[C@@H](CCC(N)=O)C(=O)N[C@@H](CC(=O)O)C(=O)N[C@@H](Cc1ccccc1)C(=O)N[C@H](C(=O)N[C@@H](Cc1ccc(CNC(=O)COCCOCCNC(=O)CC[C@H](NC(=O)CCCCCCCCCCCCCCCCC(=O)O)C(=O)O)cc1)C(=O)N[C@@H](Cc1c[nH]c2ccccc12)C(=O)N[C@@H](CC(C)C)C(=O)N[C@@H](CC(C)C)C(=O)N[C@@H](CC(=O)O)C(=O)N[C@H](C(N)=O)[C@@H](C)O)C(C)C
- GCGR EC50 human [1]: 5.05 nM
- GLP1R EC50 human [2]: 1.55 nM

Binder: H[Aib]QGTFTSD[Phe(4-CH2NH2)]([AEEA-AEEA-γGlu-C20‑OH])SKYLD[Aib]RAAQDFVQWLLATK-{γGlu-NH2} [TP581]
- GCGR EC50 human [1]: 4.95 nM
- GLP1R EC50 human [2]: 1.69 nM

Binder: H[Aib]QGTFTSDYSKYLD[Aib]RAA[Phe(4-CH2NH2)]([AEEA-AEEA-γGlu-C16 diacid])DFVQWLLATK-{γGlu-NH2} [TP663]
- GCGR EC50 human [1]: 0.22 nM
- GLP1R EC50 human [2]: 0.38 nM
